# According to the supplement of paper PMC7877785:
# ± gives the uncertainty stated by the source.
# Experiment: self-splicing fitness, log relative to wild type (ln ratio); higher = more splicing; Tetrahymena group I intron in knt gene, E. coli kanamycin selection, DiMSum; sequences stand for … in CUCUCU…GGAGGGAAAAGUUAUCAGGCAUGCACCUGGUAGCUAGUCUUUAAACCAAUAGAUUGCAUCGGUUUAAAAGGCAAGACCGUCAAAUUGCGGGAAAGGGGUCAACAGCCGUUCAGUACCAAGUCUCAGGGGAAACUUUGAGAUGGCCUUGCAAAGGGUAUGGUAAUAAGCUGACGGACAUGGUCCUAACCACGCAGCCAAGUCCUAAGUCAACAGAUCUUCUGUUGAUAUGGAUGCAGUUCACAGACUAAAUGUCGGUCGGGGAAGAUGUAUUCUUCUCAUAAGAUAUAGUCGGACCUCUCCUUAAUGGGAGCUAGCGGAUGAAGUGAUGCAACACUGGAGCCGCUGGGAACUAAUUUGUAUGCGAAAGUAUAUUGAUUAGUUUUGGAGUACUCGUGGUCG
# Method in brief: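 A randomised library covering all eight P1ex-region intron nucleotides was built with the intron in the knt kanamycin-resistance gene on pET-22b(+) and held in E. coli BL21(DE3). Cells were grown overnight at 37°C or 30°C on LB agar, with or without 25 μg/mL kanamycin, plus 100 μg/mL carbenicillin, 50 μM IPTG and 0.2% rhamnose, and pooled colonies were amplicon-sequenced on an Illumina HiSeq 2500. DiMSum fitness is the error-weighted combination of wild-type-normalised replicate fold changes, kanamycin versus none.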
sequence,measurement,setting,value
UGUAAGCAAUAUUACGCCAA,self-splicing fitness (ln),30 °C,-2.77 ± 0.26
same,self-splicing fitness (ln),37 °C,-1.34 ± 0.2
UGUAAGCAAUAUUACGCCAG,self-splicing fitness (ln),30 °C,-1.82 ± 0.34
same,self-splicing fitness (ln),37 °C,-1.07 ± 0.33
UGUAAGCAAUAUUACGCCUG,self-splicing fitness (ln),30 °C,0.084 ± 0.088
same,self-splicing fitness (ln),37 °C,-0.11 ± 0.1
UGUAAGCAAUAUUACGCGAU,self-splicing fitness (ln),30 °C,-3.35 ± 0.29
same,self-splicing fitness (ln),37 °C,-1.25 ± 0.21
UGUAAGCAAUAUUACGCUCA,self-splicing fitness (ln),30 °C,-0.207 ± 0.11
same,self-splicing fitness (ln),37 °C,0.681 ± 0.18
UGUAAGCAAUAUUACGCUGG,self-splicing fitness (ln),30 °C,-1.24 ± 0.15
same,self-splicing fitness (ln),37 °C,-1.85 ± 0.19
UGUAAGCAAUAUUACGGAGC,self-splicing fitness (ln),30 °C,-2.11 ± 0.33
UGUAAGCAAUAUUACGGAGU,self-splicing fitness (ln),30 °C,-2.24 ± 0.22
same,self-splicing fitness (ln),37 °C,-1.58 ± 0.33
UGUAAGCAAUAUUACGGAUA,self-splicing fitness (ln),30 °C,-1.38 ± 0.11
same,self-splicing fitness (ln),37 °C,-1.27 ± 0.12
UGUAAGCAAUAUUACGGAUC,self-splicing fitness (ln),30 °C,-1.45 ± 0.18
same,self-splicing fitness (ln),37 °C,-0.457 ± 0.36
UGUAAGCAAUAUUACGGCAA,self-splicing fitness (ln),30 °C,-0.056 ± 0.1
same,self-splicing fitness (ln),37 °C,0.0443 ± 0.12
UGUAAGCAAUAUUACGGCUG,self-splicing fitness (ln),30 °C,0.2 ± 0.1
same,self-splicing fitness (ln),37 °C,-0.152 ± 0.11
UGUAAGCAAUAUUACGGGAA,self-splicing fitness (ln),30 °C,-2.12 ± 0.17
same,self-splicing fitness (ln),37 °C,-2.08 ± 0.18
UGUAAGCAAUAUUACGGGAG,self-splicing fitness (ln),30 °C,-3.47 ± 0.24
same,self-splicing fitness (ln),37 °C,-1.94 ± 0.25
UGUAAGCAAUAUUACGGGGC,self-splicing fitness (ln),30 °C,-3.63 ± 0.23
same,self-splicing fitness (ln),37 °C,-3.24 ± 0.25
UGUAAGCAAUAUUACGGUAG,self-splicing fitness (ln),30 °C,-2.05 ± 0.12
same,self-splicing fitness (ln),37 °C,-1.34 ± 0.13
UGUAAGCAAUAUUACGGUGA,self-splicing fitness (ln),30 °C,-2.08 ± 0.11
same,self-splicing fitness (ln),37 °C,-0.909 ± 0.13
UGUAAGCAAUAUUACGGUGG,self-splicing fitness (ln),30 °C,-3.54 ± 0.19
same,self-splicing fitness (ln),37 °C,-1.27 ± 0.13
UGUAAGCAAUAUUACGUAUC,self-splicing fitness (ln),30 °C,-3.17 ± 0.23
same,self-splicing fitness (ln),37 °C,-2.13 ± 0.24
UGUAAGCAAUAUUACGUCAA,self-splicing fitness (ln),30 °C,-2.57 ± 0.18
same,self-splicing fitness (ln),37 °C,-0.839 ± 0.16
UGUAAGCAAUAUUACGUCGA,self-splicing fitness (ln),30 °C,-1.42 ± 0.1
same,self-splicing fitness (ln),37 °C,-0.213 ± 0.12
UGUAAGCAAUAUUACGUCGC,self-splicing fitness (ln),30 °C,-3.46 ± 0.33
same,self-splicing fitness (ln),37 °C,-1.65 ± 0.2
UGUAAGCAAUAUUACGUGGU,self-splicing fitness (ln),30 °C,-3.15 ± 0.13
same,self-splicing fitness (ln),37 °C,-3.76 ± 0.27
UGUCAGCAAUAUUACGAACG,self-splicing fitness (ln),30 °C,-0.137 ± 0.086
same,self-splicing fitness (ln),37 °C,0.589 ± 0.11
UGUCAGCAAUAUUACGAGCC,self-splicing fitness (ln),30 °C,-1.74 ± 0.24
same,self-splicing fitness (ln),37 °C,-0.631 ± 0.27
UGUCAGCAAUAUUACGAGCU,self-splicing fitness (ln),30 °C,-0.801 ± 0.088
same,self-splicing fitness (ln),37 °C,-0.417 ± 0.11
UGUCAGCAAUAUUACGAUAC,self-splicing fitness (ln),30 °C,-2.92 ± 0.24
same,self-splicing fitness (ln),37 °C,-2.41 ± 0.22
UGUCAGCAAUAUUACGAUCG,self-splicing fitness (ln),30 °C,0.238 ± 0.098
same,self-splicing fitness (ln),37 °C,0.647 ± 0.12
UGUCAGCAAUAUUACGAUGA,self-splicing fitness (ln),30 °C,0.232 ± 0.075
same,self-splicing fitness (ln),37 °C,0.333 ± 0.09
UGUCAGCAAUAUUACGAUGG,self-splicing fitness (ln),30 °C,-0.3 ± 0.073
same,self-splicing fitness (ln),37 °C,0.195 ± 0.098
UGUCAGCAAUAUUACGAUGU,self-splicing fitness (ln),30 °C,-1.36 ± 0.073
same,self-splicing fitness (ln),37 °C,-0.317 ± 0.093
UGUCAGCAAUAUUACGCAGG,self-splicing fitness (ln),30 °C,-2.52 ± 0.2
same,self-splicing fitness (ln),37 °C,-3.19 ± 0.26
UGUCAGCAAUAUUACGCAUC,self-splicing fitness (ln),30 °C,-2.61 ± 0.12
same,self-splicing fitness (ln),37 °C,-1.57 ± 0.11
UGUCAGCAAUAUUACGCCUU,self-splicing fitness (ln),30 °C,-1.38 ± 0.13
same,self-splicing fitness (ln),37 °C,-0.87 ± 0.14
UGUCAGCAAUAUUACGCGCU,self-splicing fitness (ln),30 °C,-0.874 ± 0.17
same,self-splicing fitness (ln),37 °C,-0.182 ± 0.17
UGUCAGCAAUAUUACGGACU,self-splicing fitness (ln),30 °C,-1.36 ± 0.12
same,self-splicing fitness (ln),37 °C,0.712 ± 0.13
UGUCAGCAAUAUUACGGAGC,self-splicing fitness (ln),37 °C,-2.89 ± 0.43
UGUCAGCAAUAUUACGUAAA,self-splicing fitness (ln),30 °C,-0.534 ± 0.13
same,self-splicing fitness (ln),37 °C,-0.324 ± 0.16
UGUCAGCAAUAUUACGUAAC,self-splicing fitness (ln),30 °C,-2.38 ± 0.24
same,self-splicing fitness (ln),37 °C,0.145 ± 0.26
UGUCAGCAAUAUUACGUGGG,self-splicing fitness (ln),30 °C,-1.94 ± 0.073
same,self-splicing fitness (ln),37 °C,-0.96 ± 0.082
UGUCAGCAAUAUUACGUGUG,self-splicing fitness (ln),30 °C,-0.636 ± 0.048
same,self-splicing fitness (ln),37 °C,0.0859 ± 0.065
UGUGAGCAAUAUUACGACGU,self-splicing fitness (ln),30 °C,-3.72 ± 0.18
same,self-splicing fitness (ln),37 °C,-2.29 ± 0.16
UGUGAGCAAUAUUACGACUA,self-splicing fitness (ln),30 °C,-0.569 ± 0.2
same,self-splicing fitness (ln),37 °C,-1.07 ± 0.19
UGUGAGCAAUAUUACGAGAU,self-splicing fitness (ln),30 °C,-3.75 ± 0.37
same,self-splicing fitness (ln),37 °C,-2.53 ± 0.41
UGUGAGCAAUAUUACGAUCC,self-splicing fitness (ln),30 °C,-2.29 ± 0.31
same,self-splicing fitness (ln),37 °C,-1.87 ± 0.39
UGUGAGCAAUAUUACGCACU,self-splicing fitness (ln),30 °C,-2.44 ± 0.16
same,self-splicing fitness (ln),37 °C,-0.665 ± 0.12
UGUGAGCAAUAUUACGCAGA,self-splicing fitness (ln),30 °C,-2.79 ± 0.29
same,self-splicing fitness (ln),37 °C,-1.83 ± 0.48
UGUGAGCAAUAUUACGCAUC,self-splicing fitness (ln),37 °C,-2.15 ± 0.26
UGUGAGCAAUAUUACGCAUU,self-splicing fitness (ln),30 °C,-4.49 ± 0.29
same,self-splicing fitness (ln),37 °C,-1.77 ± 0.3
UGUGAGCAAUAUUACGCUUU,self-splicing fitness (ln),30 °C,-3.5 ± 0.33
same,self-splicing fitness (ln),37 °C,-3.83 ± 0.33
UGUGAGCAAUAUUACGGACU,self-splicing fitness (ln),30 °C,-2.24 ± 0.22
same,self-splicing fitness (ln),37 °C,-0.378 ± 0.22
UGUGAGCAAUAUUACGGCCG,self-splicing fitness (ln),30 °C,-0.763 ± 0.15
same,self-splicing fitness (ln),37 °C,0.477 ± 0.27
UGUGAGCAAUAUUACGGCGG,self-splicing fitness (ln),30 °C,-2.35 ± 0.2
same,self-splicing fitness (ln),37 °C,-0.738 ± 0.19
UGUGAGCAAUAUUACGGCGU,self-splicing fitness (ln),30 °C,-3.33 ± 0.3
same,self-splicing fitness (ln),37 °C,-1.92 ± 0.32
UGUGAGCAAUAUUACGGCUU,self-splicing fitness (ln),30 °C,-2.85 ± 0.27
same,self-splicing fitness (ln),37 °C,-1.81 ± 0.23
UGUGAGCAAUAUUACGGGAU,self-splicing fitness (ln),30 °C,-4.32 ± 0.41
same,self-splicing fitness (ln),37 °C,-2.17 ± 0.38
UGUGAGCAAUAUUACGGGUA,self-splicing fitness (ln),30 °C,-2.92 ± 0.2
same,self-splicing fitness (ln),37 °C,-2.86 ± 0.31
UGUGAGCAAUAUUACGUACU,self-splicing fitness (ln),30 °C,-1.72 ± 0.17
same,self-splicing fitness (ln),37 °C,0.399 ± 0.15
UGUGAGCAAUAUUACGUCAU,self-splicing fitness (ln),37 °C,-1.32 ± 0.4
UGUGAGCAAUAUUACGUGGC,self-splicing fitness (ln),37 °C,-1.97 ± 0.4
UGUGAGCAAUAUUACGUUUU,self-splicing fitness (ln),30 °C,-3.15 ± 0.27
same,self-splicing fitness (ln),37 °C,-2.98 ± 0.37
UGUUAGCAAUAUUACGAACG,self-splicing fitness (ln),30 °C,-0.101 ± 0.092
same,self-splicing fitness (ln),37 °C,-0.499 ± 0.11
UGUUAGCAAUAUUACGACUG,self-splicing fitness (ln),30 °C,0.492 ± 0.095
same,self-splicing fitness (ln),37 °C,0.167 ± 0.12
UGUUAGCAAUAUUACGCAAG,self-splicing fitness (ln),30 °C,-3.38 ± 0.37
same,self-splicing fitness (ln),37 °C,-2.13 ± 0.4
UGUUAGCAAUAUUACGCUAA,self-splicing fitness (ln),30 °C,-2.05 ± 0.4
UGUUAGCAAUAUUACGCUGC,self-splicing fitness (ln),30 °C,-1.63 ± 0.18
same,self-splicing fitness (ln),37 °C,-2.44 ± 0.32
UGUUAGCAAUAUUACGGACC,self-splicing fitness (ln),30 °C,0.127 ± 0.12
same,self-splicing fitness (ln),37 °C,0.443 ± 0.16
UGUUAGCAAUAUUACGGAGU,self-splicing fitness (ln),37 °C,-2.73 ± 0.27
UGUUAGCAAUAUUACGGCCC,self-splicing fitness (ln),30 °C,-2.13 ± 0.36
same,self-splicing fitness (ln),37 °C,-1.13 ± 0.41
UGUUAGCAAUAUUACGGCGA,self-splicing fitness (ln),30 °C,0.174 ± 0.14
same,self-splicing fitness (ln),37 °C,-0.431 ± 0.15
UGUUAGCAAUAUUACGGCUU,self-splicing fitness (ln),30 °C,-0.797 ± 0.16
same,self-splicing fitness (ln),37 °C,-0.574 ± 0.19
UGUUAGCAAUAUUACGGGCU,self-splicing fitness (ln),30 °C,-1.9 ± 0.13
same,self-splicing fitness (ln),37 °C,-1.5 ± 0.17
UGUUAGCAAUAUUACGGUAU,self-splicing fitness (ln),30 °C,-2.59 ± 0.4
same,self-splicing fitness (ln),37 °C,-1.95 ± 0.28
UGUUAGCAAUAUUACGGUUG,self-splicing fitness (ln),30 °C,-1.78 ± 0.14
same,self-splicing fitness (ln),37 °C,-1.2 ± 0.15
UGUUAGCAAUAUUACGUAUC,self-splicing fitness (ln),37 °C,-0.937 ± 0.26
UGUUAGCAAUAUUACGUGCU,self-splicing fitness (ln),30 °C,-1.95 ± 0.13
same,self-splicing fitness (ln),37 °C,-1.51 ± 0.13
UGUUAGCAAUAUUACGUUAA,self-splicing fitness (ln),30 °C,-1.85 ± 0.27
same,self-splicing fitness (ln),37 °C,-0.838 ± 0.15
UGUUAGCAAUAUUACGUUCC,self-splicing fitness (ln),30 °C,-2.47 ± 0.29
same,self-splicing fitness (ln),37 °C,-2.03 ± 0.41
